According to patent publication US20090018093:
Read-outs that look alike come from different tables or passages of the source.

Tested on: Immunoglobulin E (IgE) (Homo sapiens), P01854-1
Assay: filter

Sequence of Immunoglobulin E (IgE) (Homo sapiens), P01854-1 (P01854 other isoform, or with tags, fused parts or gaps): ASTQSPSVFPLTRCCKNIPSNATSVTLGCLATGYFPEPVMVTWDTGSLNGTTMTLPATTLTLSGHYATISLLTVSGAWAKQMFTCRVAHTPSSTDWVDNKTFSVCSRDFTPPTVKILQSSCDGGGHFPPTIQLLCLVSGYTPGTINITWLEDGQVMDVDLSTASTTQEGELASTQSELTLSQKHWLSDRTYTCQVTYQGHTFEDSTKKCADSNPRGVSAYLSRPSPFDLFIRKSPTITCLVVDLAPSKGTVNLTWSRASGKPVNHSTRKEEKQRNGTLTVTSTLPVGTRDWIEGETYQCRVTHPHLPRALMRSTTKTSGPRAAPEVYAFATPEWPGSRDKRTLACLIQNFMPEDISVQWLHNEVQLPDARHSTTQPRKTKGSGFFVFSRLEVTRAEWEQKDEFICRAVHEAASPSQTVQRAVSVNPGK

For “GGGGCTACTTTATCCGTTCCTCCTAGTGGGTAGCCCC [ARC1404]”, the Kd (2'-OMe at 1-4,7,33-37, PS 21-22, 3' idT [2'-OMe at 1-4,7,33-37, PS linkage 21-22 (internal N = PS, not a base), 3' inverted dT cap (terminal N, left out)], DPBS Mg/Ca, BSA) was 1.8 nM.

AGCCUGGGGACCCAUGGGGGGCU [ARC1254] was tested, and the Kd (2'-OMe C,U and G8, other A,G deoxy, 3' idT [2'-OMe: 3,4,5,8,11,12,13,15,22,23, 2'-deoxy: 1,2,6,7,9,10,14,16,17,18,19,20,21, 24 = 3' inverted dT], dPBS Ca/Mg + BSA, RT) was 24 nM.

Sequence “GGGGCTACTTTATCCGUTCCTCCTAGTGGGTAGCCCCN [ARC1281]” has a Kd (2'-OMe U at 17, 3' idT, DPBS Mg/Ca, BSA) of 0.1 nM.

“GGGGCAGCTTTATCCGTACCTCCCAGTGGGCTGCCCC [ARC474]” showed a Kd of 0.7 nM.

“GGGGCTACTTTATCCGTTCCTCCTAGTGGGTAGCCCC [ARC1414]” gave a Kd (2'-OMe at 1-4,7,33-37, PS 31-32, 3' idT [2'-OMe at 1-4,7,33-37, PS 31-32, 3' idT cap after 37 (left out)], DPBS Mg/Ca, BSA) of 2.9 nM.

For “GGAAUCAUACACAAGACGUCGCCAGAUUGAGUGUCGUGGUU [rRfY minimer SEQ 92]”, the Kd (2'-F C and U, KD2 22.0 nM, 1xSHMCK + tRNA) was 0.25 nM.

With AGCCUGGGGACCCAUGGGGGGCU [ARC1564] the Kd (ARC1335 chemistry with dI18, 3' idT [18=dI (G parent), 24=3' inverted dT], DPBS Mg/Ca, 0.1 mg/mL BSA, RT) was 0.5 nM.

For “GGGGTACCTTTATCCGTTTCTCCTAGTGGGGTGCCCC [DNA clone SEQ 132]”, the Kd was 0.4 nM.

For AGCCUGGGGACCCAUGGGGGGCU [ARC2981], the Kd (ARC1666 pattern plus PS between A14 and U15, 3' idT [dI (written G) at 16,18,20, 2'-OMe 1-5,7,10-15,17,22,23, deoxy 6,8,9,16,18-21, PS 8/9,14/15,15/16,16/17,18/19,20/21, 3' inverted dT left out], dPBS Ca/Mg + BSA, RT) was 0.02 nM.

“AGCCUGGGNGACCCAUNNNGNNGNNGNCNUNN [ARC3269]” was tested, and the Kd (ARC2342 chemistry with 2'-OMe G8, 3' idT, DPBS Mg/Ca, BSA, RT) was 0.52 nM.

AGCCUGGGGACCCAUGGGGGGCU [ARC907] was tested, and the Kd (dRmY (2'-OMe C,U), 7-deaza-dG16 [7-deaza-dG at 16, 2'-OMe C3,C4,U5,C11,C12,C13,U15,C22,U23, A,G 2'-deoxy], DPBS Mg/Ca, 0.1 mg/mL BSA, RT) was 22 nM.

With “AGCCUGGGNGNACCCAUNNNGNNGNNGCUN [ARC2976]” the Kd (ARC1666 pattern plus PS between G9 and A10, 3' idT, dPBS Ca/Mg + BSA, RT) was 0.3 nM.

For “GGGGCTACTTTATCCGTTCCTCCTAGTGGGTAGCCCC [ARC1412]”, the Kd (2'-OMe at 1-4,7,33-37, PS 29-30, 3' idT [2'-OMe at 1-4,7,33-37, PS 29-30, 3' idT cap after 37 (left out)], DPBS Mg/Ca, BSA) was 2.5 nM.

Sequence AGACUGGGGACCCAUGGGGGUCU [ARC1249] has a Kd (2'-OMe/2'-deoxy mix, 3:21 pair changed, DPBS Mg/Ca, 0.1 mg/mL BSA, RT) of 130 nM.

“AGCCUGGGNGACCNCAUNNNGNNGNNGCUN [ARC2979]” gave a Kd (ARC1666 chemistry + PS 12-13, 3' idT, DPBS Mg/Ca, BSA, RT) of 0.05 nM.

“GGGAGAGGAGAGAACGUUCUACGCAGCGCAUCUGGGGACCCAAGAGGGGAUUCGCUGUCGAUCGAUCGAUCGAUG [ARC2001]” was tested, and the Kd (dRmY: 2'-deoxy A,G, 2'-OMe C,U, error 0.1, dPBS Ca/Mg + BSA, RT) was 18 nM.

For “GGGGCTACTTTATCCGTTCCTCCTAGTGGGTAGCCCCT [ARC1276]”, the Kd (2'-OMe at 12, 3' idT [12 (2'-OMe A), 38 (3' inverted dT)], DPBS Mg/Ca, BSA) was 3 nM.

For AGCCUGGGGACCCAUGGGGGGCU [ARC905], the Kd (dRmY (2'-OMe C,U), 7-deaza-dG8 [7-deaza-dG at 8, 2'-OMe C3,C4,U5,C11,C12,C13,U15,C22,U23, A,G 2'-deoxy], DPBS Mg/Ca, 0.1 mg/mL BSA, RT) was 9 nM.

AGCCUGGGGACCCAUGGGGGGCU [ARC1261] was tested, and the Kd (2'-OMe C,U and G19, other A,G deoxy, 3' idT [2'-OMe: 3,4,5,11,12,13,15,19,22,23, 2'-deoxy: 1,2,6,7,8,9,10,14,16,17,18,20,21, 24 = 3' inverted dT], dPBS Ca/Mg + BSA, RT) was 63 nM.

In the case of “GGGGCTACTTUATCCGUUCCTCCTAGTGGGTAGCCCC [ARC1389]”, the Kd (2'-OMe at 1-4,7,11,17,18,20,33-37, 3' idT [2'-OMe: 1-4,7,11,17,18,20,33-37, 38 = 3' inverted dT], DPBS Mg/Ca, BSA) is reported as 5.4 nM.

“AGCCUGGGNGACCCAUNNNGNNNGNNGCUN [ARC2982]” was tested, and the Kd (ARC1666 chemistry + PS 17-18, 3' idT, DPBS Mg/Ca, BSA, RT) was 0.03 nM.

For AGCCUGGGGACCCAUGGGGGGCU [ARC1250], the Kd (2'-OMe C,U and A1, other A,G deoxy, 3' idT [2'-OMe: 1,3,4,5,11,12,13,15,22,23, 2'-deoxy: 2,6,7,8,9,10,14,16,17,18,19,20,21, 24 = 3' inverted dT], dPBS Ca/Mg + BSA, RT) was 11 nM.

Sequence AGCCUGGGGACCCAUGGGGGGCU [ARC904] has a Kd (dRmY (2'-OMe C,U), 7-deaza-dG7 [7-deaza-dG at 7, 2'-OMe C3,C4,U5,C11,C12,C13,U15,C22,U23, A,G 2'-deoxy], DPBS Mg/Ca, 0.1 mg/mL BSA, RT) of 8 nM.

In the case of “GGGGCTACTTTATCCGTTCCTCCTAGTGGGTAGCCCC [ARC1413]”, the Kd (2'-OMe at 1-4,7,33-37, PS 30-31, 3' idT [2'-OMe at 1-4,7,33-37, PS 30-31, 3' idT cap after 37 (left out)], DPBS Mg/Ca, BSA) is reported as 3.3 nM.

With AGCCUGGGGACCCAUGGGGGGCU [ARC908] the Kd (dRmY, 7-deaza-dG at G17 [7-deaza-dG: 17, 2'-OMe: 3-5,11-13,15,22,23, deoxy: all A,G], dPBS Ca/Mg + BSA, RT) was 3 nM.

“AGCCUGGGNGACCCAUNNNGNNGNNGNCNUNN [ARC3271]” gave a Kd (ARC2342 chemistry with 2'-OMe I16, 3' idT, DPBS Mg/Ca, BSA, RT) of 0.23 nM.

In the case of “GGGGCTACTTGATCCGTCCCTCCTAGTGGGTAGCCCC [ARC477]”, the Kd is reported as 0.6 nM.

“GGAAUCAUACACAAGACGUCAGUAAGAUUGAGUGUAUGGUU [rRfY minimer SEQ 96]” showed a Kd (2'-F C and U, KD2 39.7 nM, 1xSHMCK + tRNA) of 0.365 nM.

“GGGGCTACTTTATCCGTTCCTCCTAGTGGGTAGCCCC [ARC1391]” gave a Kd (2'-OMe at 1-4,7,33-37, PS 8-9, 3' idT [2'-OMe at 1-4,7,33-37, PS linkage 8-9 (internal N = PS, not a base), 3' inverted dT cap (terminal N, left out)], DPBS Mg/Ca, BSA) of 4.4 nM.

For “GGGGCTACTTTATCCGTTCCTCCTAGTGGGTAGCCCC [ARC1399]”, the Kd (2'-OMe at 1-4,7,33-37, PS 16-17, 3' idT [2'-OMe at 1-4,7,33-37, PS linkage 16-17 (internal N = PS, not a base), 3' inverted dT cap (terminal N, left out)], DPBS Mg/Ca, BSA) was 1.8 nM.

AGCCUGGGNGACCCAUNNNGNNGNNGCUN [ARC3268] showed a Kd (ARC1666 chemistry with 2'-OMe G8,G9,I16, 3' idT, DPBS Mg/Ca, BSA, RT) of 0.6 nM.

“GGGGCTACTTTATCCGTTCCTCCTAGTGGGTAGCCCC [ARC1401]” showed a Kd (2'-OMe at 1-4,7,33-37, PS 18-19, 3' idT [2'-OMe at 1-4,7,33-37, PS linkage 18-19 (internal N = PS, not a base), 3' inverted dT cap (terminal N, left out)], DPBS Mg/Ca, BSA) of 2 nM.

Sequence “GGGAGAGGAGAGAACGUUCUACCCGCAGCAUAGCCUGGGGACCCAUGGGGGGCGCUGUCGAUCGAUCGAUCGAUG [ARC1994]” has a Kd (dRmY: 2'-deoxy A,G, 2'-OMe C,U, error 5, dPBS Ca/Mg + BSA, RT, 109.7 nM with tRNA + ssDNA competitor (p280)) of 5 nM.

AGCCUGGGGACCCAUGGGGGGCU [ARC1252] gave a Kd (2'-OMe C,U and G6, other A,G deoxy, 3' idT [2'-OMe: 3,4,5,6,11,12,13,15,22,23, 2'-deoxy: 1,2,7,8,9,10,14,16,17,18,19,20,21, 24 = 3' inverted dT], dPBS Ca/Mg + BSA, RT) of 98 nM.

With “GGGAAAAGCGAAUCAUACACAAGACGUGAGCAUAUCAUUGAGUGUAGUGGUUCCGGAGUAAGUCGCUCCGCCAGAGACCAACCGAGAA [rRfY clone SEQ 15]” the Kd (2'-F C and U, biphasic, KD2 19.0 nM, 1xSHMCK + tRNA, RT) was 0.115 nM.

In the case of “GGGGCTACTUTATCCGTTCCTCCTAGTGGGTAGCCCC [ARC1274]”, the Kd (2'-OMe U at 10, 3' idT [10 (2'-OMe U), 38 (3' inverted dT)], DPBS Mg/Ca, BSA) is reported as 2 nM.

“AGCCUGGGNGACCCAUNNNGNNGNNGNCNUNN [ARC3273]” showed a Kd (ARC2342 chemistry with 2'-OMe G8,I16, 3' idT, DPBS Mg/Ca, BSA, RT) of 0.86 nM.

“GGGGCTACTTTATCCGTTCCTCCTAGTGGGTAGCCCCN [ARC1287]” was tested, and the Kd (2'-OMe at 23, 3' idT, DPBS Mg/Ca, BSA) was 1 nM.

Sequence “GGAUCCGAGGGUGGGCAAUAGGCUCACAAGGGUCC [rRfY minimer SEQ 94]” has a Kd (2'-F C and U, KD2 26.5 nM, 1xSHMCK + tRNA) of 1.01 nM.

For “GGGGCTACTTTATCCGTTCCTCCTAGTGGGTAGCCCCT [ARC1279]”, the Kd (2'-OMe at 15, 3' idT [15 (2'-OMe C), 38 (3' inverted dT)], DPBS Mg/Ca, BSA) was 0.8 nM.

Sequence AGCCUGGGGACCCAUGGGGGGCU [ARC2343] has a Kd (ARC1666 pattern without 3' idT [dI (written G) at 16,18,20, 2'-OMe 1-5,7,10-15,17,22,23, deoxy 6,8,9,16,18-21, PS 8/9,15/16,16/17,18/19,20/21, no 3' idT], dPBS + BSA, RT) of 0.09 nM.

With AGCCUGGGNGACCCAUNNNGNNGNNGCUN [ARC3267] the Kd (ARC1666 chemistry with 2'-OMe G9,I16, 3' idT, DPBS Mg/Ca, BSA, RT) was 0.2 nM.

With “AGCCUGGGNGACCCNAUNNNGNNGNNGCUN [ARC2980]” the Kd (ARC1666 chemistry + PS 13-14, 3' idT, DPBS Mg/Ca, BSA, RT) was 0.04 nM.

For AGCCUGGGGACCCAUGGGGGGCU [ARC1565], the Kd (ARC1335 chemistry with dI19 as printed, 3' idT [19=dI (G parent), 24=3' inverted dT], DPBS Mg/Ca, 0.1 mg/mL BSA, RT) was 1.4 nM.

Sequence AGCCUGGGGACCCAUGGGGGGCU [ARC1253] has a Kd (2'-OMe C,U and G7, other A,G deoxy, 3' idT [2'-OMe: 3,4,5,7,11,12,13,15,22,23, 2'-deoxy: 1,2,6,8,9,10,14,16,17,18,19,20,21, 24 = 3' inverted dT], dPBS Ca/Mg + BSA, RT) of 2 nM.

Work on “AGNCCUGGGNGACCCAUNNNGNNGNNGCUN [ARC2970]” yielded a Kd (ARC1666 chemistry + PS 2-3, 3' idT, DPBS Mg/Ca, BSA, RT) of 0.04 nM.

Sequence “ANGCCUGGGNGACCCAUNNNGNNGNNGCUN [ARC2969]” has a Kd (ARC1666 chemistry + PS 1-2, 3' idT, DPBS Mg/Ca, BSA, RT) of 0.09 nM.

For AGCCUGGGGACCCAUGGGGGGCU [ARC1256], the Kd (2'-OMe C,U and A10, other A,G deoxy, 3' idT [2'-OMe: 3,4,5,10,11,12,13,15,22,23, 2'-deoxy: 1,2,6,7,8,9,14,16,17,18,19,20,21, 24 = 3' inverted dT], dPBS Ca/Mg + BSA, RT) was 0.4 nM.
